These results are taken from patent US20100196390A1 (RINAT NEUROSCIENCE, published 2010).

As usually defined, the Kd is the concentration at which binding is half-saturated. By koff is commonly meant a measure of how fast the partners let go of each other. Higher therefore signals a short-lived complex. By kon is commonly meant a measure of how fast the partners come together. A higher kon goes with faster complex formation.

One assay addresses TrkB (Homo sapiens (Human), UniProt Q16620 32-430). Description: koff of Fab at 25 C; T1/2=Log2/koff. In short, it runs like this:
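Monovalent Fab fragments were tested at 25° C by surface plasmon resonance on a Biacore instrument, against TrkB extracellular-domain monomer amine-coupled to the chip at low capacity. Fabs were injected low to high as a 3-fold serial dilution from 100 nM for 84 sec, with a 10 minute dissociation after the top sample. The dissociation half-life was calculated from koff, which was fitted to a Langmuir binding model in BIAevaluation. The formula used was T1/2 = Log 2/koff.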

Assay [1] concerns the target T1, mouse TrkB monomer (His ECD) (mouse, UniProt P15209 32-429).
T1 construct: extracellular domain; amine-coupled to the chip
Description: SPR (Biacore), Fab over amine-coupled TrkB His ECD monomer, 25 C. How it is done: (§1) TrkB monomers (H is ECD) of human, mouse, and rat were amine-coupled to the chip at levels of 2008, 1008, and 889RU respectively in an effort to give low capacity surfaces suitable for kinetic analysis. Fabs (C1, C2, A2, 4A6, and 4B12) were diluted to 100 nM (according to their labeled concentrations by NanoDrop, using 1AU=0.6 mg/mL) to give the top concentration of a 3 fold serial dilution. Samples were injected from low to high concentration as a titration series for 84 sec, allowing a 10 minute dissociation phase for the 100 nM sample. […] The full-length mouse anti-TrkB antibody 38B8-IgG was used as a (+) control to confirm that the chip was active.
(§2) The concentrations of the Fab proteins are determined by ELISA and/or SDS-PAGE electrophoresis using a Fab of known concentration (as determined by amino acid analysis) as a standard. Kinetic association rates (kₒₙ) and dissociation rates (koff) (generally measured at 25° C. or 37° C.) are obtained simultaneously by fitting the data to a 1:1 Langmuir binding model (Karlsson, R. Roos, H. Fagerstam, L. Petersson, B., 1994 Methods Enzymology 6:99-110) using the BIAevaluation program. Equilibrium dissociation constant (KD) values are calculated as koff/kₒₙ.
Background: Surface plasmon resonance follows binding to a sensor surface in real time, without labels.

The target in assay [2] is T2, human TrkB monomer (His ECD) (human, UniProt Q16620 32-430).
T2 construct: extracellular domain; amine-coupled to the chip
T2 sequence (Q16620 32-430): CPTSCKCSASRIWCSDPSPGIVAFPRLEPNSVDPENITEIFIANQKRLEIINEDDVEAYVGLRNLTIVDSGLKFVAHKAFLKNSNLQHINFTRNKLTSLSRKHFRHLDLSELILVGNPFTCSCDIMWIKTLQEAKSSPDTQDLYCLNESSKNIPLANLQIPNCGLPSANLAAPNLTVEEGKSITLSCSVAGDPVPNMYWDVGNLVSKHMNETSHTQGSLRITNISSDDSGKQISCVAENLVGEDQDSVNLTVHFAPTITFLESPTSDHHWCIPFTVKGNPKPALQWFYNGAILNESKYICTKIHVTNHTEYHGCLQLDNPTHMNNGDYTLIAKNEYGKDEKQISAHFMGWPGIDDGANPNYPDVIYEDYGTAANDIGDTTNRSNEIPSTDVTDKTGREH
Described as above. The protocol:
as §1, §2

In assay [3] the target is T3, rat TrkB monomer (His ECD) (rat, UniProt Q63604 32-429).
T3 construct: extracellular domain; amine-coupled to the chip
T3 sequence (Q63604 32-429): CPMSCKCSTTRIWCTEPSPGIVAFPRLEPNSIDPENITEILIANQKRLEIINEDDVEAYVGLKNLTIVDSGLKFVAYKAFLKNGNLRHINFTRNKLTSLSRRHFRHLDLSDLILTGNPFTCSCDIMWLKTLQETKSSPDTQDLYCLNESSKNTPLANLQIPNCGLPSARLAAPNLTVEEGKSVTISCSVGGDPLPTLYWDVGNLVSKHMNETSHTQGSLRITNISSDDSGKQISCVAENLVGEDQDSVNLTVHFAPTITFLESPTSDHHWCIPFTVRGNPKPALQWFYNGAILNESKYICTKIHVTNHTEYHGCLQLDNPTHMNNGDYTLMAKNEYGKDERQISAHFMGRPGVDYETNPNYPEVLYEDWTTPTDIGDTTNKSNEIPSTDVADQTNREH
The assay is described as above. How it is done: as §1, §2

TrkB, sequence (Q16620 32-430 limits assumed): as the sequence (Q16620 32-430) above
T1 sequence (P15209 32-429): as the sequence (Q63604 32-429) above, with M3T, T9S, T10A, I32V, K63R, G84S, T153M, I185L, T394S counted along it

B1: 16-C3 (Fab, V domains shown)
VH: QVQLVQSGAEVKKPGASVKVSCKASGYTFTNYDIIWVRQAPGQGLEWMGYINPYNDGTKYNEKFKGRVTMTRDTSTSTVYMELSSLRSEDTAVYYCARLLKYRRFRYYAIDYWGQGTTVTVSS
VL: DIQMTQSPSSLSASVGDRVTITCRASENVYSNLAWYQQKPGKAPKLLIYAASNLQSGVPSRFSGSGSGTDFTFTISSLQPEDIATYYCQQFWYSPFTFGQGTKLEIK
notes: Fab
In the assay with TrkB, B1 gave a T1/2 of 1 min.

B2: A6-11 (Fab, V domains shown)
VH: QVQLVQSGAEVKKPGASVKVSCKASGYTFTNYDIIWVRQAPGQGLEWMGYINPYNRRTEYNEKFKGRVTMTRDTSTSTVYMELSSLRSEDTAVYYCARLLKYRRFRYYAIDYWGQGTTVTVSS
VL: DIQMTQSPSSLSASVGDRVTITCHASENVYSNLAWYQQKPGKAPKLLIYAASNLQSGVPSRFSGSGSGTDYTFTISSLQPEDIATYYCQHFWGSPFTFGQGTKLEIK
notes: Fab
In turn, B2 displayed a T1/2 with TrkB of 9.9 min.

B3: A2 (Fab, V domains shown)
VH: QVQLVQSGAEVKKPGASVKVSCKASGYTFTNYDIIWVRQAPGQGLEWMGYINPYNDGTKYNEKFKGRVTMTRDTSTSTVYMELSSLRSEDTAVYYCARLLKYRRFRYYAIDYWGQGTTVTVSS
VL: DIQMTQSPSSLSASVGDRVTITCRASENVYSNLAWYQQKPGKAPKLLIYAASNLQSGVPSRFSGSGSGTDYTFTISSLQPEDIATYYCQHFWYSPWTFGQGTKLEIK
notes: Fab
Regarding B3, the T1/2 in the assay with TrkB stood at 6 min. Further, in assay [1], the Kd was found to be 0.51 nM, the koff was 0.000636 s⁻¹ and the on-rate (kon) came out at 1.24e+06 M⁻¹ s⁻¹. In assay [2], this molecule registered a Kd of 1.08 nM, a koff of 0.00145 s⁻¹ and a kon of 1.34e+06 M⁻¹ s⁻¹. In assay [3], the Kd stood at 1.18 nM, the off-rate constant (koff) is 0.00152 s⁻¹ and the association rate constant (kon) worked out at 1.29e+06 M⁻¹ s⁻¹.

B4: 16-G9 (Fab, V domains shown)
VH: QVQLVQSGAEVKKPGASVKVSCKASGYTFTNYDIIWVRQAPGQGLEWMGYINPYNDGTKYNEKFKGRVTMTRDTSTSTVYMELSSLRSEDTAVYYCARLLKYRRFRYYAIDYWGQGTTVTVSS
VL: DIQMTQSPSSLSASVGDRVTITCRASENVYSNLAWYQQKPGKAPKLLIYAASNLQSGVPSRFSGSGSGTDFTFTISSLQPEDIATYYCQHFWYSPFGFGQGTKLEIK
notes: Fab
In the assay with TrkB, B4 returned a T1/2 of 4 min.

B5: 16-E4 (Fab, V domains shown)
VH: QVQLVQSGAEVKKPGASVKVSCKASGYTFTNYDIIWVRQAPGQGLEWMGYINPYNDGTKYNEKFKGRVTMTRDTSTSTVYMELSSLRSEDTAVYYCARLLKYRRFRYYAIDYWGQGTTVTVSS
VL: DIQMTQSPSSLSASVGDRVTITCRASENVYSNLAWYQQKPGKAPKLLIYAASNLQSGVPSRFSGSGSGTDFTFTISSLQPEDIATYYCQHFWYSPWTFGQGTKLEIK
notes: Fab
B5 yielded a T1/2 in the assay with TrkB of 7 min.

B6: T1-HuC1 (Fab, V domains shown)
VH: QVQLVQSGAEVKKPGASVKVSCKASGYTFTNYDIIWVRQAPGQGLEWMGYINPYNDGTKYNEKFKGRVTMTRDTSTSTVYMELSSLRSEDTAVYYCARLLKYRRFSYYAIDYWGQGTTVTVSS
VL: DIQMTQSPSSLSASVGDRVTITCRASENVYSNLAWYQQKPGKAPKLLIYAASNLADGVPSRFSGSGSGTDFTFTISSLQPEDIATYYCQHFWYSPFTFGQGTKLEIK
notes: Fab
As to B6, the T1/2 with TrkB amounted to 1.7 min.

B7: 16-D6 (Fab, V domains shown)
VH: QVQLVQSGAEVKKPGASVKVSCKASGYTFTNYDIIWVRQAPGQGLEWMGYINPYNDGTKYNEKFKGRVTMTRDTSTSTVYMELSSLRSEDTAVYYCARLLKYRRFKYYAIDYWGQGTTVTVSS
VL: DIQMTQSPSSLSASVGDRVTITCRASENVYSNLAWYQQKPGKAPKLLIYAASNLADGVPSRFSGSGSGTDFTFTISSLQPEDIATYYCQDFWYSPFTFGQGTKLEIK
notes: Fab
B7: in the assay with TrkB, the T1/2 was 1 min.

B8: 16-H4 (Fab, V domains shown)
VH: QVQLVQSGAEVKKPGASVKVSCKASGYTFTNYDIIWVRQAPGQGLEWMGYINPYNDGTKYNEKFKGRVTMTRDTSTSTVYMELSSLRSEDTAVYYCARLLKYRRFRYYAIDYWGQGTTVTVSS
VL: DIQMTQSPSSLSASVGDRVTITCRTSESVYSNLAWYQQKPGKAPKLLIYAASNLQSGVPSRFSGSGSGTDFTFTISSLQPEDIATYYCQHFWASPFTFGQGTKLEIK
notes: Fab
As for B8, in the assay with TrkB, the T1/2 was determined as 6 min.

B9: 16-F4 (Fab, V domains shown)
VH: QVQLVQSGAEVKKPGASVKVSCKASGYTFTNYDIIWVRQAPGQGLEWMGYINPYNDGTKYNEKFKGRVTMTRDTSTSTVYMELSSLRSEDTAVYYCARLLKYRRFRYYAIDYWGQGTTVTVSS
VL: DIQMTQSPSSLSASVGDRVTITCRASENVYSNLAWYQQKPGKAPKLLIYAASNLADGVPSRFSGSGSGTDFTFTISSLQPEDIATYYCQHFWTSPFTFGQGTKLEIK
notes: Fab
B9 yielded a T1/2 with TrkB of 5 min.

B10: A6-9 (Fab, V domains shown)
VH: QVQLVQSGAEVKKPGASVKVSCKASGYTFTNYDIIWVRQAPGQGLEWMGYINPYNDRRRYNEKFKGRVTMTRDTSTSTVYMELSSLRSEDTAVYYCARLLKYRRFRYYAIDYWGQGTTVTVSS
VL: DIQMTQSPSSLSASVGDRVTITCHASENVYSNLAWYQQKPGKAPKLLIYAASNLQSGVPSRFSGSGSGTDYTFTISSLQPEDIATYYCQHFWGSPFTFGQGTKLEIK
notes: Fab
As for B10, the T1/2 with TrkB came out at 11.8 min.

B11: 4B12 (Fab, V domains shown)
VH: QVQLVQSGAEVKKPGASVKVSCKASGYTFTNYDIIWVRQAPGQGLEWMGYINPYNGRREYNEKFKGRVTMTRDTSTSTVYMELSSLRSEDTAVYYCARLLKYRRFRYYAIDYWGQGTTVTVSS
VL: DIQMTQSPSSLSASVGDRVTITCRASEPVYSNVAWYQQKPGKAPKLLIYAASNLQSGVPSRFSGSGSGTDYTFTISSLQPEDIATYYCQHFWGSPFTFGQGTKLEIK
notes: Fab
As for B11, the T1/2 in the assay with TrkB came out at 12.8 min. In assay [1], this molecule came in with a Kd of 0.06 nM, a koff of 0.000146 s⁻¹ and a kon of 2.38e+06 M⁻¹ s⁻¹. In addition, in assay [2], the Kd stood at 0.21 nM, the koff turned out to be 0.000532 s⁻¹ and the kon amounted to 2.5e+06 M⁻¹ s⁻¹. Moreover, in assay [3], the Kd was 0.41 nM, the koff turned out to be 0.00081 s⁻¹ and the kon stood at 1.99e+06 M⁻¹ s⁻¹.

B12: A6-10 (Fab, V domains shown)
VH: QVQLVQSGAEVKKPGASVKVSCKASGYTFTNYDIIWVRQAPGQGLEWMGYINPYNRGREYNEKFKGRVTMTRDTSTSTVYMELSSLRSEDTAVYYCARLLKYRRFRYYAIDYWGQGTTVTVSS
VL: DIQMTQSPSSLSASVGDRVTITCHASENVYSNLAWYQQKPGKAPKLLIYAASNLQSGVPSRFSGSGSGTDYTFTISSLQPEDIATYYCQHFWGSPFTFGQGTKLEIK
notes: Fab
For B12, the T1/2 with TrkB is 4 min.
